# Experimental data published in publication PMC2883168.
# Biological target: human FGFR1-IIIb (human)
# Assay: SPR
# Sequence of human FGFR1-IIIb (human) (P11362 22-822): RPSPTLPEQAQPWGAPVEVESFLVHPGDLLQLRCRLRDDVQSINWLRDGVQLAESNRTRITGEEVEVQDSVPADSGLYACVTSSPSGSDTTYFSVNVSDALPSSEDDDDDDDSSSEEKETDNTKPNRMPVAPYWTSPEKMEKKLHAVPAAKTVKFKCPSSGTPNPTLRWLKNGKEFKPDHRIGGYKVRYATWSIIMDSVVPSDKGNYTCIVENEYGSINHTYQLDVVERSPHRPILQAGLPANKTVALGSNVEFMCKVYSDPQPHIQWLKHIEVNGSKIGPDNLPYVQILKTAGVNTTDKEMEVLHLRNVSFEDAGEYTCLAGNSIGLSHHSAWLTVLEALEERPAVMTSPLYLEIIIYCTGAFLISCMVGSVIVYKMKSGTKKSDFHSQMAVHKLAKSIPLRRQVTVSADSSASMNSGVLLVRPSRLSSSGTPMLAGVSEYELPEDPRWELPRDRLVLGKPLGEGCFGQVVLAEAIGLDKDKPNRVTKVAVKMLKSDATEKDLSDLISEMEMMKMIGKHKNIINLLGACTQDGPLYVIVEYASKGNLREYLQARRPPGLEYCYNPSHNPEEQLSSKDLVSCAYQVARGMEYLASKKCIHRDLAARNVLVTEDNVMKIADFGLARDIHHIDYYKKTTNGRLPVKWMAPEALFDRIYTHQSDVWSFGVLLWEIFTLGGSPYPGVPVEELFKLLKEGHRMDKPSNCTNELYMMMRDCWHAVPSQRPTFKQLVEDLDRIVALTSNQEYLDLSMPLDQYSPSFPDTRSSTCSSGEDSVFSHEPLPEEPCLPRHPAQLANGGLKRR
substance,measurement,value
"native, recombinant FGF-2 (from UniProt P09038 1-288) (ligand)",Kd,952 nM
